{"source": "patent US6022855A", "about": "“Methods and reagents for inhibiting furin endoprotease” (Oregan Health Sciences University, priority 1995, dated 2000)", "molecules": {"B1": {"name": "α1 -NAT: native α1-antitrypsin, naturally-occurring protease inhibitor (-Ala-Ile-Pro-Met- at positions 355-358) (protein)", "chain": "EDPQGDAAQKTDTSHHDQDHPTFNKITPNLAEFAFSLYRQLAHQSNSTNIFFSPVSIATAFAMLSLGTKADTHDEILEGLNFNLTQIPEAQIHEGFQELLRTLNQPDSQLQLTTGNGLFLSQGLKLVDKFLEDVKKLYHSEAFTVNFGDTEQAKKQINDYVEKGTQGKIVDLVKELDRDTVFALVNYIFFKGKWERPFEVKDTEEEDFHVDQVTTVKVPMMKRLGMFNIQHCKKLSSWVLLMKYLGNATAIFFLPDEGKLQHLENELTHDIITKFLENEDRRSASLHLPKLSITGTYDLKSVLGQLGITKVFSNGADLSGVTEEAPLKLSKAVHKAVLTIDEKGTEAAGAMFLEAIPMSIPPEVKFNKPFVFLMIEQNTKSPLFMGKVVNPTGK"}, "B2": {"name": "α1 -PIT: naturally-occurring variant α1-antitrypsin Pittsburgh, Met358→Arg358 mutation (Ala355-Ile-Pro-Arg358) (protein)", "chain": "B1 chain with M358R"}}, "key": {"elastase [1]": {"target": "elastase"}, "thrombin [2]": {"target": "thrombin"}, "[3]": {"target": "furin endoprotease endogenous to BSC-40 cells"}, "Human furin": {"system": "Human furin", "assay_type": "biochemical", "conditions": "for percent endoprotease activity in presence of each serpin (Furin): relative concentration of serpin inhibitor 100; for inhibition of furin endoprotease activity (FIG. 2, in words): serpin 10 μg/mL, 20 min 37° C. pre-incubation, substrate 50 μM"}, "elastase [4]": {"system": "elastase", "assay_type": "biochemical", "conditions": "relative concentration of serpin inhibitor 100"}, "[5]": {"system": "furin-mediated processing of pro-β-NGF in BSC-40 cells", "assay_type": "cell-based, African green monkey"}, "[6]": {"system": "furin-mediated processing of HIV-1 gp160 in BSC-40 cells", "assay_type": "cell-based, African green monkey"}, "[7]": {"system": "syncytium formation IP/IR cells / CD4+ HeLa cells", "assay_type": "cell-based, human", "conditions": "serpin co-expressed with gp160 in IP/IR cells"}, "thrombin [8]": {"system": "thrombin", "assay_type": "biochemical"}}, "note": "Where a chain is given by its changes, count along the chain named.", "data": [{"molecule": "α1 -antitrypsin Portland", "values": [{"measurement": "percent endoprotease activity in presence of each serpin", "setting": "elastase [1]", "result": 101, "unit": "%"}, {"measurement": "percent endoprotease activity in presence of each serpin", "setting": "thrombin [2]", "result": 95, "unit": "%"}, {"measurement": "percent of pro-β-NGF processed in VV:mNGF-infected BSC-40 cells with α1 -PDX protein in the medium (densitometry) (% processed at 50 µg/mL)", "setting": "[3]", "result": 10}]}, {"molecule": "native α1 -antitrypsin", "values": [{"measurement": "percent endoprotease activity in presence of each serpin", "setting": "elastase [1]", "result": 13, "unit": "%"}]}, {"molecule": "α1 -antitrypsin Pittsburgh", "values": [{"measurement": "percent endoprotease activity in presence of each serpin", "setting": "elastase [1]", "result": 98, "unit": "%"}, {"measurement": "percent endoprotease activity in presence of each serpin", "setting": "thrombin [2]", "result": 8, "unit": "%"}]}, {"molecule": "B1", "values": [{"measurement": "percent endoprotease activity in presence of each serpin (Furin)", "setting": "Human furin", "result": 101, "unit": "%"}, {"measurement": "inhibition of furin endoprotease activity (FIG. 2, in words)", "setting": "Human furin", "result": "unable to inhibit"}, {"measurement": "percent endoprotease activity in presence of each serpin (Elastase)", "setting": "elastase [4]", "result": 13, "unit": "%"}, {"measurement": "forms of β-NGF secreted by co-infected cells (FIG. 3)", "setting": "[5]", "result": "produced both the processed and unprocessed forms of β-NGF"}, {"measurement": "gp160 processing products in co-infected cells (FIG. 4)", "setting": "[6]", "result": "produced both unprocessed gp160 and processed gp120 and gp41"}, {"measurement": "effect on gp41-mediated syncytia formation (FIGS. 6D-6F)", "setting": "[7]", "result": "had no effect on syncytia formation"}]}, {"molecule": "B2", "values": [{"measurement": "percent endoprotease activity in presence of each serpin (Furin)", "setting": "Human furin", "result": 97, "unit": "%"}, {"measurement": "inhibition of furin endoprotease activity (FIG. 2, in words)", "setting": "Human furin", "result": "not furin"}, {"measurement": "inhibition of thrombin endoprotease activity (FIG. 2, in words)", "setting": "thrombin [8]; FIG. 2", "result": "specifically inhibited"}, {"measurement": "percent endoprotease activity in presence of each serpin (Thrombin)", "setting": "thrombin [8]; relative concentration of serpin inhibitor 100", "result": 8, "unit": "%"}, {"measurement": "percent endoprotease activity in presence of each serpin (Elastase)", "setting": "elastase [4]", "result": 98, "unit": "%"}, {"measurement": "forms of β-NGF secreted by co-infected cells (FIG. 3)", "setting": "[5]", "result": "produced both the processed and unprocessed forms of β-NGF"}, {"measurement": "gp160 processing products in co-infected cells (FIG. 4)", "setting": "[6]", "result": "produced both unprocessed gp160 and processed gp120 and gp41"}, {"measurement": "effect on gp41-mediated syncytia formation (FIGS. 6D-6F)", "setting": "[7]", "result": "had no effect on syncytia formation"}]}]}
